Assay results: the supplement of paper PMC10065799, “High-throughput profiling of sequence recognition by tyrosine kinases and SH2 domains using bacterial peptide display” (eLife, 2023)

How the values were obtained:
FGFR3 = FGFR3 (UniProt P22607); assay: phosphorylation enrichment, bacterial display (enrichment ratio); higher = better substrate or ligand; peptides without Tyr show the background
Fes = Fes (UniProt P07332); assay: as above
MERTK = MERTK (UniProt Q12866); assay: as above
EPHB2 = EPHB2 (UniProt P29323); assay: as above
FGFR1 = FGFR1 (UniProt P11362); assay: as above
Chain of FGFR1 (P11362 whole entry, looked up): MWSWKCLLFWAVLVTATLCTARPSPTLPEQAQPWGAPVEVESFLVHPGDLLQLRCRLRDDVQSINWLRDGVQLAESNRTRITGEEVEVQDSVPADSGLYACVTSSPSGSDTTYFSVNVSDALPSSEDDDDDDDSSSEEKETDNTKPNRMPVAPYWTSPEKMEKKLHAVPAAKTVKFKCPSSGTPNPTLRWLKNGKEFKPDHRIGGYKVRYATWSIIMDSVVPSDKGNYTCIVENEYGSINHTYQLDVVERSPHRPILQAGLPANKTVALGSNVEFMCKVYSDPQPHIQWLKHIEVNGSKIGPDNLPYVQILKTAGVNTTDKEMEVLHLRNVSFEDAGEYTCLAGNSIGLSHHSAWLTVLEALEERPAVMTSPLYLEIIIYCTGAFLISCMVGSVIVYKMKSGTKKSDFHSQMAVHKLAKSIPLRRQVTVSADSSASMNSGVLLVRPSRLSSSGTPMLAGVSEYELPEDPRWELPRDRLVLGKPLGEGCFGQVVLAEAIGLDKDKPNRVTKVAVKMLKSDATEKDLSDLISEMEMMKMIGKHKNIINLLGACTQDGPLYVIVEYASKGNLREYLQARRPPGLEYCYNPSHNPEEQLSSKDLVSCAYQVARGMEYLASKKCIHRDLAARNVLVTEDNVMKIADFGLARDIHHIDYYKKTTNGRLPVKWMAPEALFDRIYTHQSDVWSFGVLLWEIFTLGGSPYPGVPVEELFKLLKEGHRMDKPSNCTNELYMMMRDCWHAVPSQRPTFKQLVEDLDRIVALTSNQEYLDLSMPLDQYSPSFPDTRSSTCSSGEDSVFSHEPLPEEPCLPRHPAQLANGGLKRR

Fer (mouse) = assay: as above
AncSZ = assay: as above
Hck = Hck (UniProt P08631); assay: as above
Chain of Hck (P08631 whole entry, looked up): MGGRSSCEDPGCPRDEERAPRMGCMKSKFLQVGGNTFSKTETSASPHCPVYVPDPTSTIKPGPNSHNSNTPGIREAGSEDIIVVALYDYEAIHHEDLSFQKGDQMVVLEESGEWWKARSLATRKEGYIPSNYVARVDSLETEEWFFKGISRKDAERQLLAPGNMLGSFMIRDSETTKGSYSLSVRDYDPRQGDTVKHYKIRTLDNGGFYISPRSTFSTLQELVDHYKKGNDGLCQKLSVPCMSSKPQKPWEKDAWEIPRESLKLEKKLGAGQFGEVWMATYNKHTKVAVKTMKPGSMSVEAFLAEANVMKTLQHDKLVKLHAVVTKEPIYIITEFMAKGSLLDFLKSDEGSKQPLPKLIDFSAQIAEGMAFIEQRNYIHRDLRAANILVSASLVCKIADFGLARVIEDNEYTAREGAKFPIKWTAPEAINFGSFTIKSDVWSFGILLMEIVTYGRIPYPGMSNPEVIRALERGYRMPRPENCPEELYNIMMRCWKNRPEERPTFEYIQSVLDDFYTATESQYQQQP

Jak2 = Jak2 (UniProt O60674); assay: as above
Chain of Jak2 (O60674 whole entry, looked up): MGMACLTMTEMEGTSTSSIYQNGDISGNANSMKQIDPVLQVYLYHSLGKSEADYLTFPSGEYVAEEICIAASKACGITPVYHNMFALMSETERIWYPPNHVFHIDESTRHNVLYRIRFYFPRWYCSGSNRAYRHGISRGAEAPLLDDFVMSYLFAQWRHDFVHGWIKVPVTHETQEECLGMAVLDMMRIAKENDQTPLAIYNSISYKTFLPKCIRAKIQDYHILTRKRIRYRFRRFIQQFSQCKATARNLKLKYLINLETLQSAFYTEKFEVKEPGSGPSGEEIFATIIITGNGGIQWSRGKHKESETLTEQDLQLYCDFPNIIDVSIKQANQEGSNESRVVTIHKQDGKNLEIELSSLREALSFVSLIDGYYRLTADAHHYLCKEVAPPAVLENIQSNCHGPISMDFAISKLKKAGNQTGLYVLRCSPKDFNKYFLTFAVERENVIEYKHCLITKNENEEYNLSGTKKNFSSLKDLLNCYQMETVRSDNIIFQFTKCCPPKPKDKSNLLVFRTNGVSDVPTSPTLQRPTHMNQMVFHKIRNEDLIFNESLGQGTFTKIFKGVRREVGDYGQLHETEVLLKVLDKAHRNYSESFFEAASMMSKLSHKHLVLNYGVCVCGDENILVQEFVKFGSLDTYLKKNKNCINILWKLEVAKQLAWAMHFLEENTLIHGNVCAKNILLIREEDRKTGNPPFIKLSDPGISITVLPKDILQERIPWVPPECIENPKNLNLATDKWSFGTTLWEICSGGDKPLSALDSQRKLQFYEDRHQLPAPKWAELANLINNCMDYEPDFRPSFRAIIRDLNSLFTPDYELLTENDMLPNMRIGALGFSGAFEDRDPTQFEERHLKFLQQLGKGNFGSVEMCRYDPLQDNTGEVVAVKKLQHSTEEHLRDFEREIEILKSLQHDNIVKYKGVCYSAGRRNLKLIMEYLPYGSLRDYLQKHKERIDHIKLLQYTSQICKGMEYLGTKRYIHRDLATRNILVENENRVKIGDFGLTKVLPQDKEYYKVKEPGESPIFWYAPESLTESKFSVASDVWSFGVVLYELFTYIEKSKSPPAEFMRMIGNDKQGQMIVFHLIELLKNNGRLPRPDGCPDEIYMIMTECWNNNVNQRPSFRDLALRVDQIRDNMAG

c-Src = assay: as above
c-Abl (mouse) = assay: as above
Fyn = Fyn (UniProt P06241); assay: as above
Chain of Fyn (P06241 whole entry, looked up): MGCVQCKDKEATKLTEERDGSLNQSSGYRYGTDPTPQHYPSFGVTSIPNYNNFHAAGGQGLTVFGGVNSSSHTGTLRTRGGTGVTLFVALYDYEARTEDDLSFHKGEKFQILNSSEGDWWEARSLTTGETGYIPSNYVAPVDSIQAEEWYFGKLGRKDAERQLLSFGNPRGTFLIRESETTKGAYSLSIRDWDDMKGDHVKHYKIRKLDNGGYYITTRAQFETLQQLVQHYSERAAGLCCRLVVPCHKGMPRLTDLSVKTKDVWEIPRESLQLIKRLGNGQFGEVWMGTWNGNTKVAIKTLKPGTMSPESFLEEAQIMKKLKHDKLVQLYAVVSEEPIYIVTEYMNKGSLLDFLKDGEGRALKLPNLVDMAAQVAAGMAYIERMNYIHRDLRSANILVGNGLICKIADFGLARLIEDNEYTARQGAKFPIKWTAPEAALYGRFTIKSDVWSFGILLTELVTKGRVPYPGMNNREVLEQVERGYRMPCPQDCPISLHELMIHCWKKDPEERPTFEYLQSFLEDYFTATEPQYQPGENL

EPHB1 = EPHB1 (UniProt P54762); assay: as above
c-Src SH2 = assay: SH2 binding enrichment of the phosphorylated peptide, bacterial display (enrichment ratio); higher = better substrate or ligand; peptides without Tyr show the background
Grb2 SH2 = Grb2 SH2 (UniProt P62993); assay: as above
SHP2-C SH2 = assay: as above
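Throughout, for SH2 binding enrichment of the phosphorylated peptide, bacterial display: peptide library displayed on the E. coli surface as eCPX fusions, selected cells deep-sequenced, score is each peptide's frequency after selection divided by its frequency in the input.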
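Throughout, for phosphorylation enrichment, bacterial display: 11-residue human phosphosite peptides and single-mutation variants displayed on the E. coli surface, counted by deep sequencing, each peptide's frequency after selection divided by its frequency in the unselected input library; frequency after pTyr selection over input frequency; kinase dosed for 20-30% of maximal phosphorylation in three min.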

Chain of Fes (P07332 whole entry, looked up): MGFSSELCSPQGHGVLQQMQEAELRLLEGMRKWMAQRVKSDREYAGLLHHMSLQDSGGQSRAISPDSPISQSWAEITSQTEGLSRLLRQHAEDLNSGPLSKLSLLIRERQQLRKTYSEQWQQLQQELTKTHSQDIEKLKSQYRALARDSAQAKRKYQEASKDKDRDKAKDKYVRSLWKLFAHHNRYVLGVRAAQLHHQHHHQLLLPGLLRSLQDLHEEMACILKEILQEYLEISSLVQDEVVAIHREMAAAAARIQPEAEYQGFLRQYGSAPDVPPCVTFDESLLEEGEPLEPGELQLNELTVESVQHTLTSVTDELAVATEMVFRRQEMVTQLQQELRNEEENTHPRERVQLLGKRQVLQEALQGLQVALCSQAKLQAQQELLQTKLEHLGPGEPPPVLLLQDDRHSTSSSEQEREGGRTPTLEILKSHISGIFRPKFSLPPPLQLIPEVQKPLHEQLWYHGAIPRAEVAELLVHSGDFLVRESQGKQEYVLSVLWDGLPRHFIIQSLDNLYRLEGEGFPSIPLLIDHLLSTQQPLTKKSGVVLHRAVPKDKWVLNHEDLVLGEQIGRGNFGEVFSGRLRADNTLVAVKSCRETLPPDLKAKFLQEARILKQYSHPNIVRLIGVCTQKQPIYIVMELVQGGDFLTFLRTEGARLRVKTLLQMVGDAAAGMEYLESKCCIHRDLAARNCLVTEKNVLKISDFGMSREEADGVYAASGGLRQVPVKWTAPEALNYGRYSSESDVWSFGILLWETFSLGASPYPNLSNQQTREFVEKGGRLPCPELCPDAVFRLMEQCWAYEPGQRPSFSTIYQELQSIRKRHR
Chain of FGFR3 (P22607 whole entry, looked up): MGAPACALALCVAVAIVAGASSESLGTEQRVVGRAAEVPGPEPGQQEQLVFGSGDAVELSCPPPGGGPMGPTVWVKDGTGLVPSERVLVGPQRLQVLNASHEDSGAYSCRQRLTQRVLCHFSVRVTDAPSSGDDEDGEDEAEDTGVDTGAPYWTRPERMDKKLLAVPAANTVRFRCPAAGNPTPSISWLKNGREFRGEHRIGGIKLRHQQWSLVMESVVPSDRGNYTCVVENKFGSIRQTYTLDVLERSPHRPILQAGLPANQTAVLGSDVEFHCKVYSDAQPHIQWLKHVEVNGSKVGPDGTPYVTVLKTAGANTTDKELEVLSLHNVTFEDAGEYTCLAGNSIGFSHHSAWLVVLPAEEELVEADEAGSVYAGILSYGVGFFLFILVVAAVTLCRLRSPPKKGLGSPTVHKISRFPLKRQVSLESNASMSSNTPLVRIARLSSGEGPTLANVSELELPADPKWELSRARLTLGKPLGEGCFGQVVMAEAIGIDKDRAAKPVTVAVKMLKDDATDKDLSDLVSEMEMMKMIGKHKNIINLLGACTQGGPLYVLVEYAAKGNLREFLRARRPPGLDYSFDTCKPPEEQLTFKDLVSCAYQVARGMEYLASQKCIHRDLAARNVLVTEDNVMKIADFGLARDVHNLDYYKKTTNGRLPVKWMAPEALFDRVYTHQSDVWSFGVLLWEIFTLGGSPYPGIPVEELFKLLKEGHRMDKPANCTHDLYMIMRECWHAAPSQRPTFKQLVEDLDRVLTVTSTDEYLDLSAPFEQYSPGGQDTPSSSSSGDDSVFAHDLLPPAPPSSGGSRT

SH2 binding enrichment (c-Src SH2) | SH2 binding enrichment (Grb2 SH2) | SH2 binding enrichment (SHP2-C SH2) | Sequence | phosphorylation enrichment (FGFR3) | phosphorylation enrichment (Fes) | phosphorylation enrichment (MERTK) | phosphorylation enrichment (EPHB2) | phosphorylation enrichment (FGFR1) | phosphorylation enrichment (Fer (mouse)) | phosphorylation enrichment (AncSZ) | phosphorylation enrichment (Hck) | phosphorylation enrichment (Jak2) | phosphorylation enrichment (c-Src) | phosphorylation enrichment (c-Abl (mouse)) | phosphorylation enrichment (Fyn) | phosphorylation enrichment (EPHB1)
0.243 | 0.383 | 0.449 | LVRAFYCERRR [CARD11_Y970] | 0.585 | 0.713 | 0.902 | 1.71 | 0.766 | 0.624 | 0.684 | 1.14 | 0.705 | 0.988 | 0.597 | 0.844 | 0.62
0.538 | 0.829 | 0.761 | ALAHKCHGGGG [HBB_Y146_Y146C] | 0.546 | 0.755 | 0.469 | 0.397 | 0.428 | 0.458 | 0.673 | 0.45 | 0.862 | 0.563 | 0.758 | 0.414 | 0.473
0.534 | 1.22 | 0.634 | LFEDHYLLGTS [ASS1_Y87_R86H_YF] | 0.707 | 1.15 | 0.384 | 0.586 | 0.494 | 0.569 | 1.27 | 0.566 | 1.15 | 1.01 | 0.662 | 0.783 | 0.618
4.85 | 0.803 | 0.503 | AAVPAYDKIRV [STXBP2_Y401] | 0.541 | 0.714 | 0.48 | 0.355 | 0.321 | 2.02 | 0.64 | 1.36 | 0.874 | 0.452 | 0.569 | 0.344 | 0.372
1.84 | 1.8 | 1.93 | CTTIHYNFMCN [TP53_Y234_Y236F] | 0.645 | 0.923 | 0.405 | 0.485 | 0.509 | 0.516 | 0.861 | 0.456 | 0.824 | 0.487 | 0.661 | 0.436 | 0.428
0.441 | 1.23 | 0.713 | FETVKYINNER [ABCB7_Y345_F346I_YF] | 0.64 | 0.954 | 0.418 | 0.403 | 0.525 | 0.424 | 0.903 | 0.472 | 0.712 | 0.431 | 0.617 | 0.452 | 0.46
0.355 | 0.743 | 0.647 | GGPAEYLRRAS [PKLR_Y38_G37E] | 0.415 | 0.76 | 0.361 | 0.334 | 0.363 | 0.367 | 0.954 | 0.374 | 0.508 | 0.285 | 0.675 | 0.427 | 0.41
1.47 | 0.87 | 0.898 | IDDNQYAYLKA [HNF4A_Y286_E285Q] | 1.69 | 0.91 | 0.876 | 0.667 | 2.93 | 1 | 0.993 | 2.12 | 0.753 | 0.48 | 1.02 | 0.668 | 0.558
0.716 | 1.08 | 0.792 | EMFNPCFGLFE [NEDD4L_Y679_Y679C_YF] | 0.798 | 1.45 | 0.554 | 0.687 | 0.667 | 0.811 | 1.27 | 0.562 | 1.41 | 0.725 | 1.29 | 0.543 | 0.71
0.456 | 0.889 | 0.728 | TGEKLYQRKEF [ZNF283_Y627] | 0.489 | 0.847 | 0.477 | 0.379 | 0.539 | 0.437 | 0.813 | 0.543 | 0.59 | 0.447 | 0.507 | 0.526 | 0.62
0.825 | 0.799 | 0.764 | GSCQEYTGAPY [NAXD_Y85_G81S] | 0.7 | 0.894 | 0.432 | 0.537 | 0.558 | 0.494 | 1.14 | 0.545 | 0.805 | 0.505 | 0.668 | 0.441 | 0.573
0.573 | 1.09 | 0.664 | YHIDHYLGKEM [G6PD_Y202_R198H] | 0.667 | 0.674 | 0.438 | 0.505 | 0.673 | 0.478 | 0.599 | 0.474 | 0.476 | 0.546 | 0.58 | 0.482 | 0.437
0.576 | 1.07 | 0.791 | TRSFDYMEGGD [FGF7_Y58_YF] | 0.674 | 1.18 | 0.613 | 0.544 | 0.617 | 0.416 | 1.03 | 0.599 | 1.05 | 0.446 | 0.761 | 0.535 | 0.487
0.551 | 0.736 | 0.738 | FEPWVYSFSFE [PRKDC_Y647_YF] | 1.03 | 1.65 | 1.66 | 0.744 | 0.653 | 1.34 | 1.59 | 3.01 | 1.25 | 6.33 | 0.842 | 6.63 | 0.775
0.434 | 1.03 | 0.716 | PELINYHQHNF [BTK_Y361_S366F] | 0.598 | 1.25 | 0.696 | 0.826 | 0.851 | 0.736 | 1.04 | 0.836 | 1.02 | 0.942 | 0.919 | 0.789 | 0.631
0.503 | 0.721 | 0.634 | KELSNYKHLTL [SLIT2_Y776] | 0.43 | 0.528 | 0.443 | 0.409 | 0.501 | 0.423 | 0.571 | 0.384 | 0.543 | 0.368 | 0.522 | 0.417 | 0.494
0.655 | 0.707 | 0.882 | QAINEYEKWLE [MAP9_Y603] | 1.39 | 1.81 | 0.663 | 1.03 | 1.12 | 0.961 | 2.34 | 1.2 | 1.73 | 0.631 | 1.06 | 1 | 1.67
0.683 | 0.822 | 0.727 | RSRQIYDAYIM [GRK3_Y109] | 0.8 | 0.807 | 8.17 | 6.14 | 0.511 | 14.6 | 0.914 | 10.4 | 1.15 | 11 | 6.11 | 15.2 | 3
0.608 | 1.06 | 0.828 | AAGGRYFGLVG [HARS1_Y363_D364Y_YF] | 0.471 | 0.764 | 0.395 | 0.377 | 0.375 | 0.389 | 0.516 | 0.354 | 0.575 | 0.461 | 0.626 | 0.396 | 0.312
0.74 | 1.05 | 1.25 | FIGRIYLYLTK [GARS1_Y414] | 0.627 | 1.12 | 0.538 | 0.39 | 0.487 | 0.535 | 1.64 | 0.416 | 1.14 | 0.469 | 1.18 | 0.445 | 0.556
0.418 | 0.684 | 0.442 | YQASYYRRGDR [LTK_Y677_R673Q] | 0.526 | 0.713 | 0.523 | 0.399 | 0.411 | 0.403 | 0.685 | 0.57 | 0.635 | 0.527 | 0.641 | 0.492 | 0.453
0.674 | 1.03 | 0.652 | LFSGDYFRIQG [DDR2_Y740_YF] | 15.7 | 2.04 | 2.08 | 4.1 | 23.1 | 0.739 | 4.61 | 1.57 | 23.4 | 3.77 | 1.67 | 1.36 | 6.99
0.67 | 0.929 | 0.558 | MFNPCYGLFEF [NEDD4L_Y680_Y679C_YF] | 0.766 | 1.27 | 2.85 | 0.65 | 0.578 | 4.76 | 1.33 | 2.27 | 1.07 | 4.79 | 0.917 | 4.92 | 0.633
0.485 | 0.903 | 0.653 | TSSAGYRAAEG [COL6A3_Y543] | 0.641 | 0.629 | 0.365 | 0.406 | 0.573 | 0.429 | 0.524 | 0.379 | 0.365 | 0.316 | 0.309 | 0.422 | 0.505
0.607 | 1.25 | 0.957 | LRVHSYKSMQP [DRC7_Y516] | 0.671 | 0.769 | 0.423 | 0.515 | 0.479 | 0.565 | 0.797 | 0.684 | 0.476 | 0.55 | 0.785 | 0.567 | 0.526
4.12 | 1.05 | 1.45 | DGKYSYLKVGH [GRM3_Y480_G475D] | 0.427 | 0.623 | 0.44 | 0.297 | 0.38 | 0.372 | 0.442 | 0.455 | 0.437 | 0.352 | 0.284 | 0.372 | 0.303
1.21 | 1.59 | 1.66 | NFDRVYIFHLR [MYOF_Y1137_YF] | 0.897 | 1.19 | 0.46 | 0.559 | 0.535 | 0.523 | 1.19 | 0.473 | 1.18 | 0.615 | 0.91 | 0.414 | 0.545
0.701 | 1.2 | 0.945 | NPQKSYFIRLF [WAS_Y83_YF] | 0.754 | 1.4 | 0.457 | 0.501 | 0.579 | 0.583 | 1.09 | 0.5 | 1.21 | 0.464 | 0.692 | 0.453 | 0.58
0.5 | 1.02 | 0.665 | LSAPEYGPKLK [TBC1D14_Y46] | 0.565 | 0.514 | 0.383 | 0.425 | 0.58 | 0.458 | 0.592 | 0.537 | 0.409 | 0.412 | 0.456 | 0.451 | 0.539
